Experiment: protease stability score; higher = more stable; yeast display proteolysis, trypsin and chymotrypsin;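 also: log10 excess protease needed over predicted unfolded state with 0 meaning unfolded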

Sequence | protease stability score
DEEFNKEVKKMFDNLEKGNEEEYLRMLDENAKAQYGDHDVRGREELKKELHRQRKEIRVKYQSVDIRMHNGELSVRFRAEVVVNGRPHTVERTQSAKVQNGRVQSMKLKIDEEQKERLEG | -0.251
DEEFNKVLEEALHAMHKGDPDKLNKNLDEDAKIKYGDKTVHGREDATKLLETIVKNARIQIDSFRVTSRGEKAVADVRLRYRINGKPIDVKMIIYAKNDNGRIKEVEYKIDPDELRKVEG | 1.28
DEEFQTEAEKMFTNQRNNNEDHLKDQFDKDAKVQVGDKEFHGTERYEETFRTQMEHMRYDIDSFTARVHGEDLDVDVSFQFESNGKPDRNRAKIIATYHNGRIKHLRVDQDQ | 0.073
DEEFRHKVAKALQSNNEHQLHELMDKDAKMTIGDKTVHGREEIHRVLRRLREQADHWHVSRFKIHNGKIVADVQVHINGQTYHMTITAFARGDRIERLEYTVRDEDLLRKIQRWLG | 1.97
DEEFRHQVKQFLRAETRGNEETLKEQMDKDATFEVGDRVINGHEKYASDQHERRKEIRVEIKSMEVDAQGNTADYEIDFVEHFDGKPHRRKVRASIRVHNGRVKEIVEKDSQ | -0.184
DEEFVRTVVKAHEENDEKKFNDLMDKDVKVDIGNKELRGRDQARKQLHHLRDKIDHYHVKSVTFKGNRIQIKAEFQVDGRRISAIYQQDVHNGHITSFRVSVTDPRDKHKLDEIVG | 0.151
DEEHAEELMKRWMEVVKKGDKDTVKELYKPNGTWRNVDEEHQGVEQVQKMMKKIQDVGVEFQVRKAKVEGDRVTVVYDVRAGDVEVTFTVQMDVDGGRVELVQVKVDEDAKKAVKTG | 0.034
DEEHAESVKTLFKNLRTNNEDEVEKLVDPNARMKYGDKQVHGRDEIKHMIQRLKDELHIEMDVKRMNVHNGQADLKFDITVVRNGKPDTAKANVRVQFSNGRIHDFTVQLNK | 0.347
DEEHAHEMLKVVKVLIEGDPDQAHDMVDPNARFKVGDQTFSGRESFRNHVRHTNEESSLHLKSLDAQDHGDKVTIKVEFVRDTNGNPRHMRLEVRARLHNGRVTHAEFEDRK | -0.001
DEEHAKRINENIKHGNWDELVKQFDENAKLVIGDKEYHGREEIKKAMDLFKKHADHFEIKSYDNQGEKMSATYVIQVNGKRATVKMRVTFQGDKVKRYELHATSEHNERILKEAIE | 1.12
DEEHARELVENFKRNNWQEFEKMADKDVRAHVGDWNVHGRETFSRMMKHLVDQIDHISVDSVDVDEDTVEIHFSFDINGQDVTAVLRVELHNGKIKSMELDARDENARDVLRKVWR | 0.099
DEEHARTFMEEWQKAVQKGDHKRAQEIYKPNVEWVAGDKQTQGTDVVREMLEKAQKMGVEFQVRRAEVEGNKVRFQYDVRHGNETVTFHVEVTVQGGKIDRVQVKFDEKAQKVQKEG | 1.07
DEEHDEKVARSVARNITHGNEKSLRKQLPEDARVVYGDKTYHGRERAANVAKEFDERADHNRVDDLRVQNGRAELIFIVNVDGKNVRAVMIVDVHNGKAKLVMIKWTNPDDQRDLEK | 0.159
DEEHELDMARKMFEAVKQGDEEEVQRNAPPDVRMEIGDRTYHGREQVRKAAKEFQKRVDHMQLDSVKLHNGDVHAKVILNINGKNNDVVVQIHIDNGRITELRFKTS | -0.06
DEEHIEEVQRRFISAFKDGDEDQMQRQMDPNVKLVIGDTTIHGRESAAKSLANIVRKVDHVDVESYEVRGNQASMIMRVEINGKDDRLDFQIEIHNGHIKRLEIQSS | 0.692
DEEHITNVVKKMVNALRTGDPDTARELADPNVTAEYGDKEIRGREEVSKMVKLLHKQADHVTVKDVKVTNGHMEVRRRQHVNGKEIQMTLEARVHNGKIQEMRVHKK | -0.305
DEEHKAKDAARRMQEVARRNDPTQAKEMIPPDAKVRVGDKDVHGREQVVTLFKKIADQADHLDIQVSSVDIQGDRAVVVFNLRYTINGQDRRNRVVVIFRDHNGHVMILEVQEQ | 0.514
DEEHLKRVNETVMDIVKNNDPNQLREMVDPNVKVDVGDQRVHGRDKAAEVVKEWEKHVDRVTIRHVSVHNGRVRVVFQLESNGKTKDVQILFVYENGRIHSMRFTSQ | 0.933
DEEHLLSRLAKEFWEDWKQGDPNKASKQADKDVHVQIGDKEYHGREHLERLFKEVKKDVDHNTSRITDLKVDENHIDLKVSFSMNVNGQNITMVVDVKMRIVNGHAKAVDIKYK | 1.37
DEEHMEHFREVMEQNDPDELNELVDPNARLVIGDKKYHGRDTVVKLIKRFWSKADHNRLRSLTIRNGRASWRMQATVNGQRLDFTVEAVFHNGRLKTMRFKFRDRSQVDHFRRLLQ | 1.74
DEEHMQELAEELVKVMKRGDFKRYLDLASENAEVTYGEKSVRGREDLHKMQEELEKKVDHIHMKDFRVSGNQIHLFFVVHHDGRSREVVVTIEYHNGRITSVTYDEK | -0.075
DEEHNERVAEEINRIMRDGDEERFEEMVDEDVKLQVGDKTWSGREEARKWQHEMWNSVDHVHIQDFEVSGDEIVIHFQLEHNGRREQAVVIVRFSNGRIKMMTIETQ | 1.41
DEEHNKEVMENIITGNSDEMRKMVDPNAQLEIGDKRYHGRDQIDTFEHLMRDRVDNLEVKRYDLQGDKVHVDYVFVVNGKHARVRVSFSVKNGRFTQIRIEVTDEEVEKILREVQK | 1.17
DEEHNQRLAERVAKVVQSGDEEEFEKQADPNVKVVYGDKTYHGNSEAMNAIKQIRKQADTVSVQSVDVHGDTARIQMRFDVNGKDRIVKVTVQVDNGRVVEVRFHET | 1.12
DEEHQHSLARTLATALRTGDPEKMKDLADKDVKVVVGDKHIKGRKDAKKWAKDWRDRYDHAQVDDVNVQGENVRIVMNVEVDGHNVVVVMTAIIDGDQVKNVKVTARNEEQEKKMKK | -0.268

Sequence | protease stability score
DEEHQKEVLEHMTTNDPQFLRDLADEDVRVNVGDKEVKGREEFRRVLEHELRRIDRIQVKRVHVEGEKFKIDRKVTFDGKTLDYEVNFTIHNGRLKQMRVQARSEDLEEKMKELHG | 0.36
DEEHQKHFEQFVKAMETGDEERLAQLVDKDVEISYGDKTIHGREELRKRVREIKEELRLTMDFKRITVRGDKVQANFKASMNHNGQPVSFKAHVTVTAHNGTIKSVSLSNHK | 1.1
DEEHQKIAKEALEQIQTGDEDEIKRQFDPNAKLQVGDQSVHGRETAAKFVRDRRRQMRIHLDDVDVKAKNGHVRLMMDVEVDHNGHPTKHRQVMIVKIHNGQIKKMTVNERD | -0.028
DEEHQKKMAEDFVKALERGDKDQFHSLFDENAKMQYGDKTVHGREDVKRWVEHVKERVDHLKVDKIEVSGNKVVLKMVINVDGQRLDMVITIHLHNGHIQSAEARVTDPDQERKANS | 1.26
DEEHRAKTAQDDIRRINQNGDPDQMHRLADKDARIQIGDTFLHGREQIKEQMERDNKKFDHQQVEIKKVEVRGDKVRIVAEIKADFNGDNKTTRFVIYLTVKNGRVKMKKVTDG | -0.194
DEEHREDSIRKVFEVLQTGDPKRFRENVDKNAKARVGDREVRGTKAADTFAHNIVKRADHVRIRRVHVHNGVVVVTEQQTVNGKEVIMVVFMEMNNGKMKLVEVNPEQLKELEG | -0.394
DEEHVDQLLRKIFEILRNGDEKKLQDNFDPNVKATYGDRDITGMHSIAKTLAELFQRADHVNLRSMEVNGDKMRMQVSVQVDGRRATLEVNMRQHNGKVKELNLDPRRIKQFES | -0.169
DEEHVDRVVKVLQHNDEEQFKRNAPPDARINIGDKQYRGREDAVEALSELWHRADHIRLHDITVRGNKIEMDMVFVVNGQHVRVVLDVEMRNGKVEQIDAHVTDEKDEENLQRAMD | 0.393
DEEHVKKIIKKVADDLQRGDEDNLKHLMDKDVRVEIGDKEVRGKDEAAKELAKFLSRADHFQVDHVDVKGNNARIHVLVNINGRERRVTLILTMHNGRLKNVRFDPENEQTLRN | 1.18
DEEHVKRMATTFAKQMRHNNPDDIMKQMDKNVQLRYGDKEVEGDENVRRRLKTLHDQVDHVEVKDYTAHGNSIRIVVRLEVNGKTANFVLIVIVENGRVLKANIDPKALDSYEK | 0.253
DEEHVRRQAKQVNDILTTGDENKMLEMAPPDAKLEYGDRHVTGREHIRRMVHEQKKQIDDFKIDTYSVSGNEVRVRFVARVNGQEADFEITIVFKNGRIHEIKVDPDALQQMRK | 0.256
DEEHWRKIAEDFMHALRTGDPRTLRKLMDEDVQYVYGDQRVTGHEEAANRFHELRQKVDHVTVKHIEVQGNKVVIDVVMQVNGKEARMTIVIVFENGRAKVLTFDPEQIKKLEG | 1.23
DEEIEDMIRKLIHAIRSGDEKKIKDNFDKDVDVDVGDKTLHGREHLTKRIAETRRQLKVRITSLHVHVRGEQVRVQVTMERTVNGRPQRHHNVFELQVHNGRVKRVSVKSDG | 1.08
DEEIERRVENRLKALEEGDEDKVRDNVDPNVRIHVGDKVWHGREHARDFARQQKEHARRKVDEYSVRVNNGKLSVKQRFKEDRNGQPREDHQQYSADIHNGTLKDMTVTKDG | 0.608
DEEIKRHIKEMMEAISHGDPDQLRRLFDPNVDIRVGDKEITGMEEYLHQLKHKLDSAEFEYKHYEVKVRNGSVRARYEYIVRINGRPNSVTAEVEIKMTNGKAKHAVYRFSDEDKKRLEG | 0.698
DEEILNKAVEALRVEHQGNRKDLKRMFDPNAKRRVGDKTITGMDNLLKELSDKRRHLNVDVKIDSLHAEGNRVELDVSQRQNTNGQPSEFRAKIVITVKNGRMVDVTIHRTK | -0.016
DEEINKQIRTMIESRTHGDEEDELRNADPNAKFRIGDKDYHGKEELKKWVKTQHDQAHVEFIIRSVRVHGNKVSMDMQVVLNVNGRPETIDASMSAEVDNGRFKRIDIHLDPDRVRTALQ | 1.16
DEEINTIAEEFMKAFQHNNPDKMRNLADENAQFRIGDDKIHGMETYAKEVKKENREQRVEFQIKDLKVQGNTVDMDVSFEVERNGQPHRFEVKLHFNFHNGKLKTLQWNTDG | -0.078
DEEIQKLIDDALKAYERGNEDQQAELFDENARVRIGDQTLHGREDLKEHLKRVKDHINFRIESYDVKVHNGRMHATLTLVMQIDGQPDQWSVHLRADVNNGRIKHFEMDMDPEKQRELTK | -0.044
DEEIRDEIKKYFKALETGDPDKMREMFDPNAKVQVGDKVYHGMSEAARHWVRRAEKIRIEIQDLNIDVHGEDVVVEQVLVEDKNGRPQRKTERLTMDVEDGRVKRAHRHSVK | 0.186
DEEIVELIKKVLEAIEEGDETRLKKLFDPNAEFEIGDKKLHGMENAAKEWRKQRQQMEIRIKSVHFEVRGERVIVKFKVEYDHNGRPSTMTVHIVALAHNGKMTYFSQKVTQ | 0.826
DEEIVKLLKRLIKAEKNGNPDEIRKNLDPNVRYVVGERTITGREEFVRDQQRRDDQMRVEFQSVQLRQKGDKAVIHQQAVYRHNGRPKTNHQHISIQAKNGKVKDQKVEVKE | 0.069
DEEIVKLVEEQARAEKTNDDKRLNELFDKDAKVDVGDKSYHGTEELHKLVHRTMHRMRFDLRTYRIDHEGDRAVMNYNLVFDINGRPDHYHVIFRAHMHNGRIKHQSVSVDPEQKKRFDS | -0.023
DEEKAKHRVEEFTQLLQENDWDHLANMADENARVQVGDQVYDGRKDIERWAKQVKERVDNVTVKEMSVSGNKMNANVEFQINGVTVRATIEIDFHNGKAKHMRVDPDVVRKQSR | 0.727
DEEKAQRLMKTLMDYIKNGNADKAQQMLKEGGKVKFGDEEVEGPEEMKKYVKKFKDKGIETHYKEEKFEGNTATVHTEAKLGNAKVEFEAHYEAKGDKVVRAEVKYDEDQYEKFKKS | -0.286
